Measurements taken from patent US7799901B2, “Modulators of the function of FAS receptors and other proteins” (Yeda Research and Development Co. Ltd., priority 1995, dated 2010).
Entries after “also recorded” stand apart in the source; their conditions may differ.

Tests used:
[1] = test system: human embryonic kidney 293-EBNA cells; assay: Cell death on overexpression of MACH isoforms in 293-EBNA cells; format: cell-based; conditions: β-galactosidase-expressing cells with apoptopic morphology, 20 h after transfection
Description: (§1) To explore the involvement of MACH in cell-death induction, the effect of overexpression of various MACH isoforms on cell viability was examined. The test was performed by transfecting MACH expression vectors together with a β-galactosidase expression vector as a transfection marker into human embryonic kidney 293-EBNA cells and breast carcinoma MCF7 cells.
(§2) In brief, 293-EBNA cells, MCF7 human breast carcinoma cells and HeLa HtTA-1 cells were grown in Dulbecco's modified Eagle's minimal essential medium supplemented with 10% fetal calf serum, nonessential amino acids, 100 U/ml penicillin and 100 μg/ml streptomycin. Cell tissue culture dishes (5×10^5 293-EBNA cells, 3×10^5 s MCF7 cells or 3×10^5 HeLa cells in 6-cm dishes) were transiently transfected, using the calcium phosphate precipitation method, with the cDNAs of the indicated proteins together with the β-galactosidase expression vector. In the experiments presented in FIGS. 14A-D and 15, each dish was transfected with 3.5 μg of the indicated MACH construct and 1.5 μg of pSV-β-gal. In the experiments presented in FIGS. 16A-D and 17-19, each dish was transfected with 2.5 μg of the indicated MACH or MORT1 construct (or, as control, empty vector) and 1.5 μg of pSV-β-gal. The cells were rinsed 6 to 10 h after transfection. The 293-EBNA and MCF7 cells were incubated for a further 18 h without additional treatment. The HeLa cells were incubated for 26 h after transfection and-then for 5 h in the presence of either anti-Fas.APO1 antibody (CH11, 0.5 μg/ml) or TNF (100 ng/ml), together with cycloheximide (10 μg/ml). The extent of cell death at the end of the incubation periods was assessed by determination of β-galactosidase expression, as described by Kumar et al, 1994.
(§3) In particular, FIGS. 14A-D show the morphology of human embryonic kidney 293-EBNA cells transiently expressing the indicated MACH isoforms. The arrows (FIG. 14B) point to apoptopic cells. Photographs were taken 26 h after transfection. […] Data are from three independent experiments with the 293-EBNA cells and two independent experiments with the MCF7 cells.

[2] = test system: breast carcinoma MCF7 cells; assay: Cell death on overexpression of MACH isoforms in MCF7 cells; format: cell-based, human; conditions: β-galactosidase-expressing cells with apoptopic morphology, 20 h after transfection
Description: as §1, §2, §3

[3] = test system: HeLa cells; assay: Cell death on overexpression of MACH isoforms in HeLa cells; format: cell-based; conditions: FIG. 19
Description: as §2
To examine the involvement of the CED3/ICE homology region within the MACHα isoforms in their apoptopic effects, cells were transfected with the expression vector for the MACHβ1 isoform, which lacks the CED3/ICE homology region, as well as with expression vectors for MACHα3, which lacks an N-terminal part of the region, and with expression vectors for MACHα1 (C360S) and for a C-terminally truncated mutant of MACHα1 (MACHα1 (1-415)), which lacks one of the residues believed to be critical for CED3/ICE protease function (corresponding to Ser347 in ICE). […]

[4] = test system: Fas/APO1 cytotoxicity (p55-Fas chimera) in 293-EBNA cells; format: cell-based, human; conditions: co-transfection
Description: as §2, with “The HeLa cells were incubated for 26 h after transfection and-then for 5 h in the presence of either anti-Fas.APO1 antibody (CH11, 0.5 μg/ml) or TNF (100 ng/ml), together with cycloheximide (10 μg/ml).” left out, “1994. […]” for “1994.”
(§4) In particular, FIGS. 16A-D show morphology of 293-EBNA cells in which cell death was induced by transient expression of a chimera comprised of the extracellular domain of the p55-R (amino acids 1-168) fused to the transmembrane and intracellular domains of Fas/APO1 (amino acids 153-319) (p55-Fas chimera) (FIGS. 16A and 16B), or by expression of the p55-R (FIGS. 16C and 16D), and of cells that were protected from these cytotoxic effects by their simultaneous transfection with MACHα1 (C360S) (FIGS. 16B and 16D). […] FIG. 17 illustrates the quantification of death induced in 293-EBNA cells by their transfection with p55-Fas chimera or with p55-R, together with an empty vector, a MORT1 deletion mutant lacking the MACH-binding region (MORT1 (92-208)), or MACHα molecules containing a nonfunctional CED3/ICE region. […] Data are from at least two independent experiments and are expressed as in FIGS. 14A-F and 15.

[5] = test system: p55-R-induced cytotoxicity in 293-EBNA cells; assay: Death of 293-EBNA cells induced by over-expression of p55-R; format: cell-based, human; conditions: co-transfection
Description: as §2, with “The HeLa cells were incubated for 26 h after transfection and-then for 5 h in the presence of either anti-Fas.APO1 antibody (CH11, 0.5 μg/ml) or TNF (100 ng/ml), together with cycloheximide (10 μg/ml).” left out, “1994. […]” for “1994.”
as §4

[6] = test system: Fas/APO1-induced death of HeLa cells; assay: Death of HeLa cells expressing Fas/APO1 induced by anti-Fas/APO1 antibody and cycloheximide; format: cell-based, human; conditions: HeLa cells transiently expressing Fas/APO1; CH11 0.5 μg/ml, cycloheximide 10 μg/ml
Description: as §2
The HeLa cells were made responsive to Fas/APO1 by transient expression of this receptor. […] These protective effects indicate that MACHα is a necessary component of both the Fas/APO1- and the p55-R-induced signaling cascades for cell death.
In particular, FIGS. 16A-D show morphology of 293-EBNA cells in which cell death was induced by transient expression of a chimera comprised of the extracellular domain of the p55-R (amino acids 1-168) fused to the transmembrane and intracellular domains of Fas/APO1 (amino acids 153-319) (p55-Fas chimera) (FIGS. 16A and 16B), or by expression of the p55-R (FIGS. 16C and 16D), and of cells that were protected from these cytotoxic effects by their simultaneous transfection with MACHα1 (C360S) (FIGS. 16B and 16D). Photographs were taken 26 h after transfection. FIG. 17 illustrates the quantification of death induced in 293-EBNA cells by their transfection with p55-Fas chimera or with p55-R, together with an empty vector, a MORT1 deletion mutant lacking the MACH-binding region (MORT1 (92-208)), or MACHα molecules containing a nonfunctional CED3/ICE region. […] Data are from at least two independent experiments and are expressed as in FIGS. 14A-F and 15.

[7] = test system: TNF-induced death of HeLa cells; assay: Death of HeLa cells induced by TNF and cycloheximide; format: cell-based, human; conditions: TNF 100 ng/ml, cycloheximide 10 μg/ml
Description: as §2, with “1994. […]” for “1994.”

B1: MACHα3: MACH isoform, cDNA SEQ ID NO: 19, amino acid SEQ ID NO: 20; lacks an N-terminal part of the CED3/ICE region (protein)
chain: KCKLDDDMNLLDIFIEMEKRVILGEGKLDILKRVCAQINKSLLKIINDYEEFSKGALTTTFEELHFEIKPHDDCTVEQIYEILKIYQLMDHSNMDCFICCILSHGDKGIIYGTDGQEAPIYELTSQFTGLKCPSLAGKPKVFFIQACQGDNYQKGIPVETDSEEQPYLEMDLSSPQTRYIPDEADFLLGMATVNNCVSYRNPAEGTWYIQSLCQSLRERCPRGDDILTILTEVNYEVSNKDDKKNMGKQMPQPTFTLRKKLVFPSD
**Q.** What does the source list for B1?
**A.** cell death of transfected 293-EBNA cells [1]: No death; cell death of transfected MCF7 cells [2]: No death; cytotoxicity in transfected HeLa cells [3]: somewhat cytotoxic; protection against Fas/APO1 cytotoxicity (p55-Fas chimera) [4]: effective protection; protection against p55-R-induced cytotoxicity [5]: effective protection; protection against death induced by anti-Fas/APO1 antibody and cycloheximide [6]: effective protection; also recorded: prevention; protection against death induced by TNF and cycloheximide [7]: effective protection
